# According to US12065471B2, “B*44 restricted peptides for use in immunotherapy against cancers and related methods” (Immatics Biotechnologies GmbH, priority 2018, dated 2024):
# Biological target: HLA-B*44:05 (Homo sapiens, UniProt P01889, A223V/A65T/A93T/A95T/D201E/D98Y/E176V/E187L/E204Q/E69K/G107R/H137Y/K202T/L105A/L119I/N104T/N87E/Q56L/Q94N/R106L/R155S/R180D/S101N/S121R/S35A/S48T/T118I/V36M/W191S/Y91S)
# Assay: MHC binding assay (UV-ligand exchange, β2m ELISA, peptide exchange yield)
# Details: binding to HLA-B*44:05
# Summary of the method: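 Peptide–HLA complexes formed by UV-ligand exchange of a UV-cleavable peptide for the test peptide. Exchange yield measured by β2m ELISA: complexes diluted 100-fold and captured on streptavidin, detected with HRP anti-β2m and TMB, read at 450 nm. Quantified against refolded HLA-A*02:01/MLA-001 monomer standards, 15-500 ng/ml.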
row,Substance,"Peptide exchange (MHC class I binding score, peptide exchange yield)"
1,135 (QEIDRGQYI; listed as Homo sapiens) [compound 135],++++ (>75% = ++++)
2,75 (LETSCGSSTAY; listed as Homo sapiens) [compound 75],+ (>10% = +)
3,105 (EEIFKTLNY; listed as Homo sapiens) [compound 105],+++ (>50 = +++)
4,101 (SEENTGKTY; listed as Homo sapiens) [compound 101],+++ (>50 = +++)
5,52 (EDNPSGHTY; listed as Homo sapiens) [compound 52],++ (>20% = ++)
6,233 (QEDKATQTL; listed as Homo sapiens) [compound 233],++++ (>75% = ++++)
7,164 (DEDGKIVGY; listed as Homo sapiens) [compound 164],++ (>20% = ++)
8,255 (KQWEYNEKLAF; listed as Homo sapiens) [compound 255],+ (>10% = +)
9,170 (REMFVFKDQW; listed as Homo sapiens) [compound 170],++++ (>75% = ++++)
10,81 (GEKATMQNL; listed as Homo sapiens) [compound 81],++ (>20% = ++)
11,103 (AELFLTKSF; listed as Homo sapiens) [compound 103],++++ (>75% = ++++)
12,171 (WEVVHTVF; listed as Homo sapiens) [compound 171],++ (>20% = ++)
13,108 (QETNKVETY; listed as Homo sapiens) [compound 108],+++ (>50 = +++)
14,121 (YENIPVDKV; listed as Homo sapiens) [compound 121],+++ (>50 = +++)
15,58 (KEMDPSRQSY; listed as Homo sapiens) [compound 58],+++ (>50 = +++)
16,99 (SECVKSLSF; listed as Homo sapiens) [compound 99],++++ (>75% = ++++)
17,160 (AEIATTGQLY; listed as Homo sapiens) [compound 160],+++ (>50 = +++)
18,3 (DEIFTNDRRW; listed as Homo sapiens) [compound 3],++ (>20% = ++)
19,201 (MEILWKTLT; listed as Homo sapiens) [compound 201],++++ (>75% = ++++)

row,Substance,"Peptide exchange (MHC class I binding score, peptide exchange yield)"
1,253 (QEILHGAVRF; listed as Homo sapiens) [compound 253],+++ (>50 = +++)
2,252 (EEFIGKIGI; listed as Homo sapiens) [compound 252],++ (>20% = ++)
3,98 (SEESAGPLL; listed as Homo sapiens) [compound 98],+++ (>50 = +++)
4,115 (QEPFTRPVL; listed as Homo sapiens) [compound 115],+++ (>50 = +++)
5,223 (SEVEGLAFV; listed as Homo sapiens) [compound 223],+++ (>50 = +++)
6,230 (AEALVDGKW; listed as Homo sapiens) [compound 230],+++ (>50 = +++)
7,259 (IEVSSPITLQAL; listed as Homo sapiens) [compound 259],++ (>20% = ++)
8,119 (VEVKYEGHW; listed as Homo sapiens) [compound 119],++++ (>75% = ++++)
9,213 (DEDLFHKL; listed as Homo sapiens) [compound 213],++ (>20% = ++)
10,149 (AETEPERHLG; listed as Homo sapiens) [compound 149],++ (>20% = ++)
11,216 (AGSPVMRKW; listed as Homo sapiens) [compound 216],++ (>20% = ++)
12,204 (YERPTLVEL; listed as Homo sapiens) [compound 204],+++ (>50 = +++)
13,113 (MEFKTLNKN; listed as Homo sapiens) [compound 113],++ (>20% = ++)
14,191 (AEHDMKSVL; listed as Homo sapiens) [compound 191],+++ (>50 = +++)
15,210 (AEGEPPPALAW; listed as Homo sapiens) [compound 210],+++ (>50 = +++)
16,207 (LEGGGRGGEF; listed as Homo sapiens) [compound 207],++ (>20% = ++)
17,185 (TEANVQALF; listed as Homo sapiens) [compound 185],++++ (>75% = ++++)
18,141 (SEKWFRMGF; listed as Homo sapiens) [compound 141],+++ (>50 = +++)
19,232 (YEIRAEAL; listed as Homo sapiens) [compound 232],++ (>20% = ++)

# More lines, now with the values ahead:
row,"Peptide exchange (MHC class I binding score, peptide exchange yield)",Substance
1,+++ (>50 = +++),411 (AERDLNVTI; listed as Homo sapiens) [compound 411]
2,+++ (>50 = +++),331 (KELEATKQYL; listed as Homo sapiens) [compound 331]
3,+++ (>50 = +++),413 (TELEPGLTY; listed as Homo sapiens) [compound 413]
4,++++ (>75% = ++++),441 (QEVAQVASAIL; listed as Homo sapiens) [compound 441]
5,++ (>20% = ++),291 (DEQLLLRF; listed as Homo sapiens) [compound 291]
6,+ (>10% = +),281 (HEIPQESL; listed as Homo sapiens) [compound 281]
7,++++ (>75% = ++++),325 (AEQEIMKKV; listed as Homo sapiens) [compound 325]
8,+++ (>50 = +++),392 (TEVSVLLLTF; listed as Homo sapiens) [compound 392]
9,+++ (>50 = +++),330 (SEHLFGTSY; listed as Homo sapiens) [compound 330]
10,+++ (>50 = +++),352 (QEDELVKIRKY; listed as Homo sapiens) [compound 352]
11,+++ (>50 = +++),293 (QEDEQLLLRF; listed as Homo sapiens) [compound 293]
12,+++ (>50 = +++),350 (EEMLENVSL; listed as Homo sapiens) [compound 350]
13,+++ (>50 = +++),357 (AELMDKPLTF; listed as Homo sapiens) [compound 357]
14,+++ (>50 = +++),415 (EEAGFPLAY; listed as Homo sapiens) [compound 415]
15,++++ (>75% = ++++),317 (TEFQQIINL; listed as Homo sapiens) [compound 317]
16,+++ (>50 = +++),295 (QELEQEVISL; listed as Homo sapiens) [compound 295]
17,+++ (>50 = +++),425 (KEVDPASNTY; listed as Homo sapiens) [compound 425]
18,+++ (>50 = +++),359 (NEFRRKLTF; listed as Homo sapiens) [compound 359]
19,+++ (>50 = +++),363 (EECDKAFHF; listed as Homo sapiens) [compound 363]
20,+++ (>50 = +++),338 (AEMKFYVVI; listed as Homo sapiens) [compound 338]
21,++++ (>75% = ++++),360 (DEMENLLTY; listed as Homo sapiens) [compound 360]
22,++++ (>75% = ++++),282 (KEFGIGDLVW; listed as Homo sapiens) [compound 282]
23,+++ (>50 = +++),335 (SETPTLQGL; listed as Homo sapiens) [compound 335]
24,+++ (>50 = +++),388 (VEIVTIPSL; listed as Homo sapiens) [compound 388]
25,+++ (>50 = +++),380 (EECGKAFRVF; listed as Homo sapiens) [compound 380]
26,+++ (>50 = +++),308 (EEPKIDFRVY; listed as Homo sapiens) [compound 308]
27,+++ (>50 = +++),416 (DELMRKESQW; listed as Homo sapiens) [compound 416]
28,++++ (>75% = ++++),432 (TEENGFWYL; listed as Homo sapiens) [compound 432]
29,+++ (>50 = +++),358 (TEFHGGLHY; listed as Homo sapiens) [compound 358]
